Target: T1, Recombinant human Dicer (FLAG-Dicer) (human, UniProt Q9UPY3 1-1922)
T1 construct: Dicer, human RNase III enzyme; source: Expi293 cells expressing FLAG-Dicer (University of Michigan Protein core), purified (M2 anti-FLAG resin)
Assay: SEC; purified Dicer and TRBP mixed at a 1:3 molar ratio, concentrated, loaded on HiLoad 16/600 Superdex 200 in buffer D (20 mM Tris-HCl pH 8.0, 150 mM NaCl, 2 mM DTT)
Conditions: both partners purified

T1 sequence (Q9UPY3 whole entry): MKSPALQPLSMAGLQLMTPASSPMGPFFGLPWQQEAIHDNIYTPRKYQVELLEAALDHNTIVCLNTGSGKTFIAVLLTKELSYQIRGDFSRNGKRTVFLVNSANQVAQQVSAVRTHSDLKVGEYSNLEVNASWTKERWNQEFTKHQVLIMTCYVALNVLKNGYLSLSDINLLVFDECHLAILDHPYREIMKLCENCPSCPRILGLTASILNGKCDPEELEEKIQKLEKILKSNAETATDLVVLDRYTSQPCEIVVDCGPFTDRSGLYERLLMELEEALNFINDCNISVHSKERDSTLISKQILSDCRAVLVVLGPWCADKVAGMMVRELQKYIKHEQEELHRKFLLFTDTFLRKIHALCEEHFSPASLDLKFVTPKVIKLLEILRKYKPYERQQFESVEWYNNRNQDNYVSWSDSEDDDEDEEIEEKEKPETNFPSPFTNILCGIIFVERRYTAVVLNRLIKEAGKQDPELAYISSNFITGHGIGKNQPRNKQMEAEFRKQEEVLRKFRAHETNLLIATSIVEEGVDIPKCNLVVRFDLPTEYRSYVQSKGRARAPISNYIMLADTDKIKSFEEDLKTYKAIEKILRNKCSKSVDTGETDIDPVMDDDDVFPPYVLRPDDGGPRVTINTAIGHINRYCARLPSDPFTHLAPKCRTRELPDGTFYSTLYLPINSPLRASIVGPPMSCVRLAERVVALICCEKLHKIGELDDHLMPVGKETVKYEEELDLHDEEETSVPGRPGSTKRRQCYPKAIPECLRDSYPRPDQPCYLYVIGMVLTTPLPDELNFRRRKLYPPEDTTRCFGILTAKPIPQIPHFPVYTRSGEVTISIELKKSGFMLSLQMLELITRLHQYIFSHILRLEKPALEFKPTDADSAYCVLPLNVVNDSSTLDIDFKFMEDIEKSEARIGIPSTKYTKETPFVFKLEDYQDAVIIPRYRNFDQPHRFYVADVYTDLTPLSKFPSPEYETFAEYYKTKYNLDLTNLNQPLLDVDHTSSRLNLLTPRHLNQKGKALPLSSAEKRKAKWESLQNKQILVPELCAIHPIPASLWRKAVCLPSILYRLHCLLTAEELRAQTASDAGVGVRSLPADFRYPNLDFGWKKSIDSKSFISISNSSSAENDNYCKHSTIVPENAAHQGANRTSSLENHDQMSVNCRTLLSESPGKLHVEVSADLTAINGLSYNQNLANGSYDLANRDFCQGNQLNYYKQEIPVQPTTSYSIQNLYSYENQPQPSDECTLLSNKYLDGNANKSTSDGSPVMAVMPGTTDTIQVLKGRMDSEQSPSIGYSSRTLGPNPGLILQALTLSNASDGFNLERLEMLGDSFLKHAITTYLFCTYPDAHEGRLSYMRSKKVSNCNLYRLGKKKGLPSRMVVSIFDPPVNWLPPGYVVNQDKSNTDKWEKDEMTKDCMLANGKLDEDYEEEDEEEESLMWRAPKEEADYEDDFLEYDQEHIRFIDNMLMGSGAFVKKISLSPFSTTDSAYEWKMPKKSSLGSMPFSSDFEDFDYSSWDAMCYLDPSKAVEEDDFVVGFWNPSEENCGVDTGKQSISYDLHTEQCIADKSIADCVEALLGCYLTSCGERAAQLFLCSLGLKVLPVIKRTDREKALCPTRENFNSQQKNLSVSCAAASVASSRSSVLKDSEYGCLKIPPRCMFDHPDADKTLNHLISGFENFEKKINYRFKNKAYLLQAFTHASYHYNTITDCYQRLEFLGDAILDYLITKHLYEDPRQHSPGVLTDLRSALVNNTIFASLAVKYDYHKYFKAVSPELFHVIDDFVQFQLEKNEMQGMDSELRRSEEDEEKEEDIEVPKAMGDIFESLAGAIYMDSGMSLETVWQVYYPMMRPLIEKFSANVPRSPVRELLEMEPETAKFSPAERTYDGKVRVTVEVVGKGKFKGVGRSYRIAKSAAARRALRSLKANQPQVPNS

binding result: binds
B1: human transactivation response element RNA-binding protein (TRBP) (natural protein, UniProt Q15633 1-366, looked up)
chain: MSEEEQGSGTTTGCGLPSIEQMLAANPGKTPISLLQEYGTRIGKTPVYDLLKAEGQAHQPNFTFRVTVGDTSCTGQGPSKKAAKHKAAEVALKHLKGGSMLEPALEDSSSFSPLDSSLPEDIPVFTAAAAATPVPSVVLTRSPPMELQPPVSPQQSECNPVGALQELVVQKGWRLPEYTVTQESGPAHRKEFTMTCRVERFIEIGSGTSKKLAKRNAAAKMLLRVHTVPLDARDGNEVEPDDDHFSIGVGSRLDGLRNRGPGCTWDSLRNSVGEKILSLRSCSLGSLGALGPACCRVLSELSEEQAFHVSYLDIEELSLSGLCQCLVELSTQPATVCHGSATTREAARGEAARRALQYLKIMAGSK
notes: TRBP, human, from plasmid pET28a-TRBP; The construct is that of Addgene plasmid #50351
